{"source": "IntAct's records for PubMed 23217712", "key": {"[1]": {"molecular_target": "pcl2_yeast PCL2 (UniProt P25693)", "sequence (P25693 whole entry)": "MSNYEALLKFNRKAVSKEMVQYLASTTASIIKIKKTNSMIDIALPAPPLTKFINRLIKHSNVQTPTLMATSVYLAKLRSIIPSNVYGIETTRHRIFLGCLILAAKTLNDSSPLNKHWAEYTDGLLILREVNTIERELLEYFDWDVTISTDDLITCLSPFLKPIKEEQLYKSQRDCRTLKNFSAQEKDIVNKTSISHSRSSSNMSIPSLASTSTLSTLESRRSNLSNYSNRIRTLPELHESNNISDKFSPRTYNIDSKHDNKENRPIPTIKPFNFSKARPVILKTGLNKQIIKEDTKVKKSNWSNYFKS"}, "[2]": {"molecular_target": "clg1_yeast CLG1 (UniProt P35190)", "sequence (P35190 whole entry)": "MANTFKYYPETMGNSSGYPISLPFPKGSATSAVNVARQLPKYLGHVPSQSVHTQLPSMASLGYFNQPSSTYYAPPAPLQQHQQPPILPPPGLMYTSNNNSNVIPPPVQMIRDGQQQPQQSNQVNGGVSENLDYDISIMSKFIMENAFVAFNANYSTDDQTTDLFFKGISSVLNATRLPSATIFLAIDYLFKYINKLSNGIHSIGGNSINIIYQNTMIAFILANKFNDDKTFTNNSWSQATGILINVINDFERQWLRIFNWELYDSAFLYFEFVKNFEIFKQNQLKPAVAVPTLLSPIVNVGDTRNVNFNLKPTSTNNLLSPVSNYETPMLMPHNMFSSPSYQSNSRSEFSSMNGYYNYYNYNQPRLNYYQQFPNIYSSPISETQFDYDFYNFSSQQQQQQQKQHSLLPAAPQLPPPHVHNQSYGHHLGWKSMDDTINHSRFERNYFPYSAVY"}, "[3]": {"molecular_target": "cg13_yeast CLN3 (UniProt P13365)", "sequence (P13365 whole entry)": "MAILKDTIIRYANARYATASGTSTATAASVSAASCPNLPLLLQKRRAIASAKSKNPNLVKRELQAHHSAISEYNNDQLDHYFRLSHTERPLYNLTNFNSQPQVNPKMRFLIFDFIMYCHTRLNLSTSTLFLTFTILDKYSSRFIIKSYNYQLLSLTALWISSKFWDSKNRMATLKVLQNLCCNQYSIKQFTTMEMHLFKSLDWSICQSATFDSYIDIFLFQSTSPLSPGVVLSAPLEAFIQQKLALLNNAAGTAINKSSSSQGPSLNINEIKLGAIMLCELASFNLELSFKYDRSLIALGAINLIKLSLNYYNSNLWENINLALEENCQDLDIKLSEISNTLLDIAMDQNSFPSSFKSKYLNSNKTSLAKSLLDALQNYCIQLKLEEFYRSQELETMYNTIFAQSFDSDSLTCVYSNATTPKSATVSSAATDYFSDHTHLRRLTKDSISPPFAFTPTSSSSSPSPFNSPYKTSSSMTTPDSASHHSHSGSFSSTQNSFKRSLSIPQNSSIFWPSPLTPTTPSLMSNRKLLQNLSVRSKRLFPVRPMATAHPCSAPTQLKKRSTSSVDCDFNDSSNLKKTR"}}}
{"substance": "Heat shock protein SSA1 (Saccharomyces cerevisiae), P10591 T36E", "values": [{"measurement": "effect of a mutation on the interaction", "setting": "[1]", "value": "decreasing interaction strength"}, {"measurement": "effect of a mutation on the interaction", "setting": "[2]", "value": "decreasing interaction strength"}]}
{"substance": "Heat shock protein SSA1 (Saccharomyces cerevisiae), P10591 T36A", "values": [{"measurement": "effect of a mutation on the interaction", "setting": "[1]", "value": "increasing interaction strength"}, {"measurement": "effect of a mutation on the interaction", "setting": "[2]", "value": "increasing interaction strength"}, {"measurement": "effect of a mutation on the interaction", "setting": "[3]", "value": "disrupting interaction strength"}]}
